Laboratory results reported in PMC2791401.

Biological target: p190RhoGAP-A (endogenous) (human (endogenous in HeLa)) (UniProt Q9NRY4)
Assay: co-IP

UniProt Q9NRY4, sequence (Q9NRY4 whole entry): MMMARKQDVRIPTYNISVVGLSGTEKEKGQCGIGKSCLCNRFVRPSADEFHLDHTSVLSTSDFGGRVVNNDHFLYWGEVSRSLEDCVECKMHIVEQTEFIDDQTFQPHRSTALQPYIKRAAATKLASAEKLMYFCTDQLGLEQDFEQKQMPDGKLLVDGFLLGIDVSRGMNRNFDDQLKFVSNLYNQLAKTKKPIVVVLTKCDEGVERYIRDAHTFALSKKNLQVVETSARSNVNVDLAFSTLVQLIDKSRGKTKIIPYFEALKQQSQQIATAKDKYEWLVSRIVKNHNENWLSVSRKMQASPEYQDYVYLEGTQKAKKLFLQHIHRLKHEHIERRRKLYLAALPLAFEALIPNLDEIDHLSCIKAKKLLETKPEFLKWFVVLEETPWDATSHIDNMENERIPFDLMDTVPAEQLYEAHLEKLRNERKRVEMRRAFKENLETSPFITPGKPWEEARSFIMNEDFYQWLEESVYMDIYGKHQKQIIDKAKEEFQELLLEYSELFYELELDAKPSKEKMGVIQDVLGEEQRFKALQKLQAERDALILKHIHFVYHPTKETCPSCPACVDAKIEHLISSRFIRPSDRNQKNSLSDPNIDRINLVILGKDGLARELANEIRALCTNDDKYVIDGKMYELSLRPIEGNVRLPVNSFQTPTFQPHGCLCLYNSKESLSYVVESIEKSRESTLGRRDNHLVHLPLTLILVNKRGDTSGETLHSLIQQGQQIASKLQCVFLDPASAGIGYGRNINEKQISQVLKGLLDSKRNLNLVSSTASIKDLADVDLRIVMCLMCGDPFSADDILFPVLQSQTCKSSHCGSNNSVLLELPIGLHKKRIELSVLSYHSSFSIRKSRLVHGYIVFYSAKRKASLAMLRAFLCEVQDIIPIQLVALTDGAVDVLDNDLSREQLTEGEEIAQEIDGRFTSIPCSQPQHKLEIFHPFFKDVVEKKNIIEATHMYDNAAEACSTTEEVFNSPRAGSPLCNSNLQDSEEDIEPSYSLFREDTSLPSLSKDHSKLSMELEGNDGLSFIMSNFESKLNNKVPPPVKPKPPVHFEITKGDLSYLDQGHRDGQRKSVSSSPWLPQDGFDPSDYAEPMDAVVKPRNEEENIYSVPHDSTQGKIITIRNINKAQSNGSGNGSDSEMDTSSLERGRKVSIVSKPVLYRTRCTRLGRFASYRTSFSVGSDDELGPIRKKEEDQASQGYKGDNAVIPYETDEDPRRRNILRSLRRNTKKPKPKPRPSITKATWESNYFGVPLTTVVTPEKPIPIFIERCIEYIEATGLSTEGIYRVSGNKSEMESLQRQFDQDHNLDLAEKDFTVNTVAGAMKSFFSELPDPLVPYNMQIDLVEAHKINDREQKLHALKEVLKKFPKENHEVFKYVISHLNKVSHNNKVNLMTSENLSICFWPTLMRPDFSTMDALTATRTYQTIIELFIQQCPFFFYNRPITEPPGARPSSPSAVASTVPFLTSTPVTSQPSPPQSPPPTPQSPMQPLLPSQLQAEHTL

Substance: FLAG-tagged ECT2C (amino acids 414-883) (domain or fragment)
- IP/Total (amount co-immunoprecipitated by anti-p190 vs. total protein expressed): 1.5

Substance: FLAG-tagged ECT2N (amino acids 1-334) (domain or fragment)
- IP/WL (amount co-immunoprecipitated by anti-p190 vs. total protein expressed): 0.2

Substance: FLAG-tagged wild type ECT2 (pCEV29F3-ECT2) (natural protein)
- abundance of the complex, percent of total p190 or ECT2: 2 to 4%
